Legend:
[1] = target: GST-Ub, P0CG48
[2] = target: T1, Use1 purified from bacteria
T1 chain: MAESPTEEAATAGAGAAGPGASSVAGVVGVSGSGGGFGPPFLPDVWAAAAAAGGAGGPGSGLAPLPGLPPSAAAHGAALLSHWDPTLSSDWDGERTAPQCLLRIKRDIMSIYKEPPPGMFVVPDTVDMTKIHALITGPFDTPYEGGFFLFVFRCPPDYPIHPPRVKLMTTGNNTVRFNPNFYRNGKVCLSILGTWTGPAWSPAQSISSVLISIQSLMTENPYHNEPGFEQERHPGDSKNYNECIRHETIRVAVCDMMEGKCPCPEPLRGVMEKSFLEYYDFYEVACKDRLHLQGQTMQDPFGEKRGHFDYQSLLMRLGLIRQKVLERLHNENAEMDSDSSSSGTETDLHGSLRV

[3] = target: GST-Nedd8, Q15843
[4] = target: GST-ISG15, P05161
Sequence of GST-ISG15, P05161 (P05161 1-157): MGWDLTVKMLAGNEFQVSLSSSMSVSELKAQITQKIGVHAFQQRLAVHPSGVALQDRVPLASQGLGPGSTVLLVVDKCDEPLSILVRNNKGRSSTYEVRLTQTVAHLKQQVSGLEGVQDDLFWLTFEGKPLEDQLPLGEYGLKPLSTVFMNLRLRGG

Sequence of GST-Ub, P0CG48 (P0CG48 whole entry, looked up): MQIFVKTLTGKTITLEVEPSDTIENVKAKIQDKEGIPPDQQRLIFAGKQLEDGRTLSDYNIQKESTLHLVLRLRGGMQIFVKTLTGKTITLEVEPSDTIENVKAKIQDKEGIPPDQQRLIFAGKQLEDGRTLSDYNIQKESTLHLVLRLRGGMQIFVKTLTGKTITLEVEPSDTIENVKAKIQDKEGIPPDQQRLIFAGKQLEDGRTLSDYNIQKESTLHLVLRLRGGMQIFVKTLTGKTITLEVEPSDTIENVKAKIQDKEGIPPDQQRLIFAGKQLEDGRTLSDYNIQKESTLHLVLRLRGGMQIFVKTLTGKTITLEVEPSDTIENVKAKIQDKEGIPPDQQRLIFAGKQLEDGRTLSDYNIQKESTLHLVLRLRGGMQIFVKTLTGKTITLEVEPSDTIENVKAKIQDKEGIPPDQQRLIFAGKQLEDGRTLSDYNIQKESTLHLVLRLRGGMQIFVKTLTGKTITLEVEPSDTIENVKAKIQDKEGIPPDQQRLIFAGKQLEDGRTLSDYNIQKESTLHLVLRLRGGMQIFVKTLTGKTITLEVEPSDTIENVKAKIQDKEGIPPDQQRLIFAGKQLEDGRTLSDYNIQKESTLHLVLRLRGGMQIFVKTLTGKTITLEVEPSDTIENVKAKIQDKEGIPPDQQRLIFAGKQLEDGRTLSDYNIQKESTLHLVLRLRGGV
Sequence of GST-Nedd8, Q15843 (Q15843 whole entry, looked up): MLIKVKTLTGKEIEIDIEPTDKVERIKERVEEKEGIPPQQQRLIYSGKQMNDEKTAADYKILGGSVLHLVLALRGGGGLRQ

B1: Flag-tagged Uba6 (protein)
chain: MEGSEPVAAHQGEKASCSSWGTGSTNKNLPIMSTASVEIDDALYSRQRYVLGDTAMQKMAKSHVFLSGMGGLGLEIAKNLVLAGIKAVTIHDTEKCQAWDLGTNFFLSEDDVVNKRNRAEAVLKHIAELNPYVHVTSSSAPFNETTDLSFLDKYQCVVLTEMKLPLQKKINDFCRSQCPPIKFISADVHGIWSRLFCDFGDEFEVLDTTGEEPKEIFISNITQTNPGIVTCLENHPHKLETGQFLTFREINGMTGLNGSIQQITVISPFSFSIGDTTELEPYLHGGIAVQVKTPKTVFFESLERQLKHPKCLIVDFSNPEAPLEIHTAMLALDQFQEKYSRKPNVGCQQDSEELLKLATSISETLEEKPDVNADIVHWLSWTAQGFLSPLAAAVGGVASQEVLKAVTGKFSPLCQWLYLEAADIVESLGKPECEEFLPRGDRYDALRACIGDTLCQKLQNLNIFLVGCGAIGCEMLKNFALLGVGTSKEKGMITVTDPDLIEKSNLNRQFLFRPHHIQKPKSYTAADATLKINSQIKIDAHLNKVCPTTETIYNDEFYTKQDVIITALDNVEARRYVDSRCLANLRPLLDSGTMGTKGHTEVIVPHLTESYNSHRDPPEEEIPFCTLKSFPAAIEHTIQWARDKFESSFSHKPSLFNKFWQTYSSAEEVLQKIQSGHSLEGCFQVIKLLSRRPRNWSQCVELARLKFEKYFNHKALQLLHCFPLDIRLKDGSLFWQSPKRPPSPIKFDLNEPLHLSFLQNAAKLYATVYCIPFAEEDLSADALLNILSEVKIQEFKPSNKVVQTDETARKPDHVPISSEDERNAIFQLEKAILSNEATKSDLQMAVLSFEKDDDHNGHIDFITAASNPRAKMYSIEPADRFKTKRIAGKIIPAIATTTATVSGLVALEMIKVTGGYPFEAYKNCFLNLAIPIVVFTETTEVRKTKIRNGISFTIWDRWTVHGKEDFTLLDFINAVKEKYGIEPTMVVQGVKMLYVPVMPGHAKRLKLTMHKLVKPTTEKKYVDLTVSFAPDIDGDEDLPGPPVRYYFSHDTD
[1]
  activation in vitro, titration of GST-Ub, anti-Flag immunoblot; result: activated: Uba6 activated GST-Ub but not GST-Nedd8
  ubiquitin activation in vitro (non-reducing SDS-PAGE, Coomassie); result: activated: Uba6 could activate ubiquitin
[2]
  charging of purified Use1 (2.5 µM) with increasing Flag-Uba6, 25 µM ubiquitin, 2 mM ATP; result: charged: Charging of purified Use1 by Uba6
[3]
  activation in vitro, titration of GST-Nedd8, anti-Flag immunoblot; result: not activated: Uba6 activated GST-Ub but not GST-Nedd8

B2: GST-Ube1L (protein)
chain: MDALDASKLLDEELYSRQLYVLGSPAMQRIQGARVLVSGLQGLGAEVAKNLVLMGVGSLTLHDPHPTCWSDLAAQFLLSEQDLERSRAEASQELLAQLNRAVQVVVHTGDITEDLLLDFQVVVLTAAKLEEQLKVGTLCHKHGVCFLAADTRGLVGQLFCDFGEDFTVQDPTEAEPLTAAIQHISQGSPGILTLRKGANTHYFRDGDLVTFSGIEGMVELNDCDPRSIHVREDGSLEIGDTTTFSRYLRGGAITEVKRPKTVRHKSLDTALLQPHVVAQSSQEVHHAHCLHQAFCALHKFQHLHGRPPQPWDPVDAETVVGLARDLEPLKRTEEEPLEEPLDEALVRTVALSSAGVLSPMVAMLGAVAAQEVLKAISRKFMPLDQWLYFDALDCLPEDGELLPSPEDCALRGSRYDGQIAVFGAGFQEKLRRQHYLLVGAGAIGCELLKVFALVGLGAGNSGGLTVVDMDHIERSNLSRQFLFRSQDVGRPKAEVAAAAARGLNPDLQVIPLTYPLDPTTEHIYGDNFFSRVDGVAAALDSFQARRYVAARCTHYLKPLLEAGTSGTWGSATVFMPHVTEAYRAPASAAASEDAPYPVCTVRYFPSTAEHTLQWARHEFEELFRLSAETINHHQQAHTSLADMDEPQTLTLLKPVLGVLRVRPQNWQDCVAWALGHWKLCFHYGIKQLLRHFPPNKVLEDGTPFWSGPKQCPQPLEFDTNQDTHLLYVLAAANLYAQMHGLPGSQDWTALRELLKLLPQPDPQQMAPIFASNLELASASAEFGPEQQKELNKALEVWSVGPPLKPLMFEKDDDSNFHVDFVVAAASLRCQNYGIPPVNRAQSKRIVGQIIPAIATTTAAVAGLLGLELYKVVSGPRPRSAFRHSYLHLAENYLIRYMPFAPAIQTFHHLKWTSWDRLKVPAGQPERTLESLLAHLQEQHGLRVRILLHGSALLYAAGWSPEKQAQHLPLRVTELVQQLTGQAPAPGQRVLVLELSCEGDDEDTAFPPLHYEL
[1]
  activation in vitro (SDS-PAGE, Coomassie); result: not activated: it failed to activate GST-Ub
[4]
  activation in vitro (SDS-PAGE, Coomassie); result: activated: While it was active toward ISG15, as expected

B3: Uba3/APPBP1 (protein)
chain 1: MADGEEPEKKRRRIEELLAEKMAVDGGCGDTGDWEGRWNHVKKFLERSGPFTHPDFEPSTESLQFLLDTCKVLVIGAGGLGCELLKNLALSGFRQIHVIDMDTIDVSNLNRQFLFRPKDIGRPKAEVAAEFLNDRVPNCNVVPHFNKIQDFNDTFYRQFHIIVCGLDSIIARRWINGMLISLLNYEDGVLDPSSIVPLIDGGTEGFKGNARVILPGMTACIECTLELYPPQVNFPMCTIASMPRLPEHCIEYVRMLQWPKEQPFGEGVPLDGDDPEHIQWIFQKSLERASQYNIRGVTYRLTQGVVKRIIPAVASTNAVIAAVCATEVFKIATSAYIPLNNYLVFNDVDGLYTYTFEAERKENCPACSQLPQNIQFSPSAKLQEVLDYLTNSASLQMKSPAITATLEGKNRTLYLQSVTSIEERTRPNLSKTLKELGLVDGQELAVADVTTPQTVLFKLHFTS
chain 2: MAQLGKLLKEQKYDRQLRLWGDHGQEALESAHVCLINATATGTEILKNLVLPGIGSFTIIDGNQVSGEDAGNNFFLQRSSIGKNRAEAAMEFLQELNSDVSGSFVEESPENLLDNDPSFFCRFTVVVATQLPESTSLRLADVLWNSQIPLLICRTYGLVGYMRIIIKEHPVIESHPDNALEDLRLDKPFPELREHFQSYDLDHMEKKDHSHTPWIVIIAKYLAQWYSETNGRIPKTYKEKEDFRDLIRQGILKNENGAPEDEENFEEAIKNVNTALNTTQIPSSIEDIFNDDRCINITKQTPSFWILARALKEFVAKEGQGNLPVRGTIPDMIADSGKYIKLQNVYREKAKKDAAAVGNHVAKLLQSIGQAPESISEKELKLLCSNSAFLRVVRCRSLAEEYGLDTINKDEIISSMDNPDNEIVLYLMLRAVDRFHKQQGRYPGVSNYQVEEDIGKLKSCLTGFLQEYGLSVMVKDDYVHEFCRYGAAEPHTIAAFLGGAAAQEVIKIITKQFVIFNNTYIYSGMSQTSATFQL
[3]
  activation in vitro (non-reducing gel); result: activated: GST-Nedd8 is activated by Uba3/APPBP1 in vitro
